Results reported in patent US20210332123A1 (SUZHOU KANOVA BIOPHARMACEUTICAL, published 2021).

T1: human IL-25 (human, UniProt Q9H293 33-177)
T1 construct: ELISA used bought R&D systems #1258-IL-025/CF; Treated as one molecule; also called IL-17E; human IL-17E
T1 sequence (looked up): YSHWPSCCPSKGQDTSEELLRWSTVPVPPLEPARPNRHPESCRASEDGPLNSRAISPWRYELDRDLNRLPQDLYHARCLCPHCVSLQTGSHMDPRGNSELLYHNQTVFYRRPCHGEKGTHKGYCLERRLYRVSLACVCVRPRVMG

T2: human IL-17A (human, UniProt Q16552 24-155, limits assumed)
T2 sequence (looked up): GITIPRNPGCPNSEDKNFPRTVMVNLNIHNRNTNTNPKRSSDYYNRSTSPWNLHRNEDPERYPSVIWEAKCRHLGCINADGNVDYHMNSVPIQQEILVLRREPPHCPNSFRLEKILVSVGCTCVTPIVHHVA

T3: human IL-17C (human, UniProt Q9P0M4 19-197)
T3 sequence (looked up): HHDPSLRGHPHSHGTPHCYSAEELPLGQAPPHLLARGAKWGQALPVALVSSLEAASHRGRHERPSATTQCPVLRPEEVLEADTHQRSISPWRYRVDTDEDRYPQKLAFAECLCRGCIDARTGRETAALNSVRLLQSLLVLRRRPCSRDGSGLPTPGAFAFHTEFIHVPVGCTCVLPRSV

T4: human IL-17B (human, UniProt Q9UHF5 21-180)
T4 sequence (looked up): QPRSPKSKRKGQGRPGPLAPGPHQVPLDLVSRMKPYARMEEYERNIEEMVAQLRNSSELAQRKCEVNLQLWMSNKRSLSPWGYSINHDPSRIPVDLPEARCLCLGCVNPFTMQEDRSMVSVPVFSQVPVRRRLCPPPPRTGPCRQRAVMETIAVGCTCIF

T5: human IL-17F (human, UniProt Q96PD4 31-163)
T5 sequence (looked up): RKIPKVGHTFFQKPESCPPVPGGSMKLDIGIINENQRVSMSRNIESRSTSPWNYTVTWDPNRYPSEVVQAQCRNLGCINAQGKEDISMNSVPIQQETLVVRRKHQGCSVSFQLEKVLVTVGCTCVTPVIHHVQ

T6: human IL-17D (human, UniProt Q8TAD2 18-202, limits assumed)
T6 sequence (looked up): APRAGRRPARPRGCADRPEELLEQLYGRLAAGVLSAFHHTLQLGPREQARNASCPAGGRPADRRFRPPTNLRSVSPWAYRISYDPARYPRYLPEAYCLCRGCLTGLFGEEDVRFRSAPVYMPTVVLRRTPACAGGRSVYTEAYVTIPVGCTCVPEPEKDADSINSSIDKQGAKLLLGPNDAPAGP

T7: mouse IL-25 (mouse, UniProt Q8VHH8 17-169, limits assumed)
T7 construct: In-house production
T7 sequence (looked up): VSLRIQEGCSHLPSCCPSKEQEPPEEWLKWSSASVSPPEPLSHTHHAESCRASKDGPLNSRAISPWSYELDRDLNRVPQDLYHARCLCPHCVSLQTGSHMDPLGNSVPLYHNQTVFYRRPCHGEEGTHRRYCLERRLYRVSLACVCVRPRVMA


Tests used:
human IL-25 [1] = biological target: T1, human IL-25; test: ELISA, plate coated with 2 µg/ml human IL-17E (IL-25)
Description: (§1) MaxiSorp 96-well plates (NUNC #449824, www.thermofisher.com) were coated with 2 μg/ml human IL-17A (Cell Signaling #89285F, www.cellsignal.com), human IL-17F (Cell Signaling #8906LC, www.cellsignal.com), human IL-17B (Peprotech #200-28, www.peprotech.com), human IL-17C (R&D systems #1234-IL-025/CF, www.rndsystems.com), human IL-17D ((Peprotech #200-27, www.peprotech.com), human IL-17E (R&D systems #1258-IL-025/CF, www.rndsystems.com) in 1×PBS (50 μl/well) respectively. Plates were incubated at 4° C. overnight. Coating solution was removed and plates were washed once with 200 μl/well PBST (1×PBS with 0.05% tween-20). Then 200 μl/well blocking buffer (1×PBS with 0.05% tween-20, 3% BSA) was added and incubated at room temperature for 1 hour. Blocking buffer was removed and plates were washed three times with 200 μl/well PBST (1×PBS with 0.05% tween-20). The anti-IL-25 antibodies (produced in Example 2), were diluted to 10, 3.33, 1.11, 0.37, 0.123, 0.041, 0.0137, 0.0046, 0.0015, 0.00031, 0.000102, 0.000034 μg/ml by 1×PBS and added to the plates (50 μl/well). Plates were incubated at room temperature for 2 hours. Antibodies in the wells were removed and plates were washed three times with 200 μl/well PBST (1×PBS with 0.05% tween-20) each time. Goat anti-human IgG(H&L)-HRP secondary antibody (Jackson Immuno Research #109-035-088, www.jacksonimmuno.com) was diluted 1:5000 in 1×PBS and added to each well (50 μl/well). Plates were incubated at room temperature for 1 hour. Secondary antibody was removed and plates were washed seven times with 200 μl/well PBST (1×PBS with 0.05% tween-20) each time. 50 μl/well TMB (eBioscience #85-00-4201-56, www.ebioscience.com) was added and plates were incubated at room temperature for several minutes. Then 50 μl/well 2N H₂SO₄ was added to stop the reaction. Plates were read at 450 nm.

human IL-25 [2] = biological target: T1, human IL-25; test: SPR, Biacore T200; antibody captured by anti-human Fc, IL-25 as analyte
Description: Anti-human Fc gamma specific antibody (Jackson Immuno Research, Lot no. 124448, Code. 109-008-098) was immobilized onto the Biacore T200 sensor chip using amine coupling method. Four antibodies secreted to the culture medium plus the parental antibody were injected and captured by anti-human Fc antibody via Fc (capture phase) individually. After equilibration, IL-25 was injected for 300 seconds (association phase) followed by the injection of running buffer for 1200 s (dissociation phase). Responses of reference flow cell (flow cell 1) were subtracted from those of humanized antibodies flow cells during each cycle. The surface was regenerated before the injection of another humanized antibody. The process was repeated until all antibodies are analyzed. The off-rates of humanized antibodies were obtained from fitting the experimental data locally to 1:1 interaction model using the Biacore T200 evaluation software. The antibodies were ranked by their dissociation rate constants (off-rates, Kd). The binders that interact with IL-25 with similar affinity to parental antibody were selected (Table 1).

human IL-17A = biological target: T2, human IL-17A; test: ELISA, plate coated with 2 µg/ml cytokine
Description: as §1

human IL-17C = biological target: T3, human IL-17C; test: ELISA, plate coated with 2 µg/ml cytokine
Description: as §1

human IL-17B = biological target: T4, human IL-17B; test: ELISA, plate coated with 2 µg/ml cytokine
Description: as §1

human IL-17F = biological target: T5, human IL-17F; test: ELISA, plate coated with 2 µg/ml cytokine
Description: as §1

human IL-17D = biological target: T6, human IL-17D; test: ELISA, plate coated with 2 µg/ml cytokine
Description: as §1

mouse IL-25 = biological target: T7, mouse IL-25; test: ELISA, plate coated with mouse IL-25, OD450, Example 7; unit from the axis lg(nM) [panel Mouse IL-25]

| Binder | EC50 (human IL-25 [1]) [pM] | Kd (human IL-25 [2]) [pM] | koff (human IL-25 [2]) [s⁻¹] | kon (human IL-25 [2]) [M⁻¹ s⁻¹] | binding result (human IL-17A) | binding result (human IL-17C) | binding result (human IL-17B) | binding result (human IL-17F) | binding result (human IL-17D) | EC50 (mouse IL-25) [pM] |
| --- | --- | --- | --- | --- | --- | --- | --- | --- | --- | --- |
| VH1-1 + VL2-1 (humanized anti-IL-25 antibody formed by VH1-1 and VL2-1) (antibody, V domains shown) VH: QVTLKESGPTLVKPTQTLTLTCTFSGFSLSTSGMGLGWIRQPPGKALEWLAHIWWDDVKHYKPALKSRLTITKDTSKNQVVLTMTNVDPVDTATYYCARMGQLHYYGYDYAMDYWGQGTLVTVSS VL: DIQLTQSPSFLSASVGDRVTITCSASSSVSYMYWYQQKPGKAPKPLIYRTSNLASGVPSRFSGSGSGTEYTLTISSMQPEDFATYYCQLYHSYPPTWTFGQGTKLEIK | 150 | 271 | 0.000259 | 957000 | no binding (tested: 10 µg/ml) | no binding (tested: 10 µg/ml) | no binding (tested: 10 µg/ml) | no binding (tested: 10 µg/ml) | no binding (tested: 10 µg/ml) | 153 |
| VH2-1 + VL1-2 (humanized anti-IL-25 antibody formed by VH2-1 and VL1-2) (antibody, V domains shown) VH: QVTLRESGPALLKPTQTLTLTCTFSGFSLSTSGMGLGWIRQPPGKALEWLAHIWWDDVKHYKPALKSRLTISKDTSKNQVVLTITNVDPVDTATYYCARMGQLHYYGYDYAMDYWGQGTLVTVSS VL: EIVLTQSPATLSASPGERVTISCSASSSVSYMYWYQQKPGQAPRPLIYRTSNLASGVPARFSGSGSGTDYTLTISSMEPEDFATYYCQLYHSYPPTWTFGQGTKLEIK | 196 | 275 | 0.000327 | 1.19e+06 | no binding (tested: 10 µg/ml) | no binding (tested: 10 µg/ml) | no binding (tested: 10 µg/ml) | no binding (tested: 10 µg/ml) | no binding (tested: 10 µg/ml) | 231 |
| VH1-1 + VL1-2 (humanized anti-IL-25 antibody formed by VH1-1 and VL1-2) (antibody, V domains shown, Captured by anti-human Fc gamma antibody in SPR) VH: QVTLKESGPTLVKPTQTLTLTCTFSGFSLSTSGMGLGWIRQPPGKALEWLAHIWWDDVKHYKPALKSRLTITKDTSKNQVVLTMTNVDPVDTATYYCARMGQLHYYGYDYAMDYWGQGTLVTVSS VL: EIVLTQSPATLSASPGERVTISCSASSSVSYMYWYQQKPGQAPRPLIYRTSNLASGVPARFSGSGSGTDYTLTISSMEPEDFATYYCQLYHSYPPTWTFGQGTKLEIK | 250 | 267 | 0.000284 | 1.06e+06 | no binding (tested: 10 µg/ml) | no binding (tested: 10 µg/ml) | no binding (tested: 10 µg/ml) | no binding (tested: 10 µg/ml) | no binding (tested: 10 µg/ml) | 242 |
| VH2-1 + VL2-1 (humanized anti-IL-25 antibody formed by VH2-1 and VL2-1) (antibody, V domains shown) VH: QVTLRESGPALLKPTQTLTLTCTFSGFSLSTSGMGLGWIRQPPGKALEWLAHIWWDDVKHYKPALKSRLTISKDTSKNQVVLTITNVDPVDTATYYCARMGQLHYYGYDYAMDYWGQGTLVTVSS VL: DIQLTQSPSFLSASVGDRVTITCSASSSVSYMYWYQQKPGKAPKPLIYRTSNLASGVPSRFSGSGSGTEYTLTISSMQPEDFATYYCQLYHSYPPTWTFGQGTKLEIK | 187 | 302 | 0.000353 | 1.17e+06 | no binding (tested: 10 µg/ml) | no binding (tested: 10 µg/ml) | no binding (tested: 10 µg/ml) | no binding (tested: 10 µg/ml) | no binding (tested: 10 µg/ml) | 244 |
| murine anti-IL-25 monoclonal antibody 18H3 (antibody, V domains shown, also called parental antibody; parental murine mAb) VH: QVTLKESGPGILQPSQTLSLTCSFSGFSLSTSGMGLGWIRQPSGKGLEWLAHIWWDDVKHYKPALKSRLTISKDISSSQVFLTIASVDTADTATYYCARMGQLHYYGYDYAMDYWGQGTSVTVSS VL: QIVLTQSPAIMSASPGEKVTISCSASSSVSYMYWYQQKPGSSPKPWIYRTSNLASGVPARFSGSGSGTSYSLTISSMEAEDAATYYCQLYHSYPPTWTFGGGTKLEIK | – | 340 | 0.000267 | 785000 | – | – | – | – | – | 329 |
